Experimental findings from PMC4118869 (PLoS ONE, 2014) are described below.

The target of assay [1] is T1, recombinant H7-HA, A/Netherlands/219/2003 (H7N7) (Influenza A virus …, UniProt Q6VMK1).
T1 construct: source: bought: Protein Sciences
Put plainly: SPR. Particulars: both partners purified.

The target of assay [2] is T2, recombinant H1-HA (H1N1)pdm09 hemagglutinin (Influenza A virus (H1N1)pdm09; …, UniProt C3W5S1, strain).
T2 construct: source: bought: Protein Sciences
Nature of the assay: SPR. Particulars: both partners purified.

Assay [3] concerns the target recombinant H9-HA, A/HongKong/1073/99 (H9N2) (Influenza A virus A/Hong Kong/1073/99 …, UniProt Q9ICY5, strain). Put plainly: SPR. The settings on record: both partners purified.
In assay [4] the target is T3, recombinant H2-HA, A/Japan/305/57 (H2N2) (Influenza A virus A/Japan/305/1957 …, UniProt P03451, strain).
T3 construct: source: bought: E-Enzymes (list of antigens) or Protein Sciences (SPR methods)
Nature of the assay: SPR. The settings on record: both partners purified.

In assay [5] the target is hemagglutinin of A/Anhui/01/2005 (H5N1), in the influenza virus antigen standard (Influenza A virus A/Anhui/1/2005 (H5N1), UniProt Q1WDM0, strain). Put plainly: ELISA. Particulars: one partner purified. (In general: In an ELISA, binding on a coated surface is turned into a signal by an enzyme label.)
Assay [6] deals with hemagglutinin of A/Indonesia/05/2005 (H5N1), in the influenza virus antigen standard (Influenza A virus A/Indonesia/05/2005 …, UniProt A5A5L7, strain). Nature of the assay: ELISA. Particulars: one partner purified.
The target of assay [7] is hemagglutinin of A/HongKong/213/2003 (H5N1), in the influenza virus antigen standard (Influenza A virus A/Hong Kong/213/2003 …, UniProt Q4H2E2, strain). Put plainly: ELISA. Particulars: one partner purified.
The target in assay [8] is hemagglutinin of A/HongKong/1073/99 (H9N2), in the influenza virus antigen standard (Influenza A virus A/Hong Kong/1073/99 …, UniProt Q9ICY5, strain). Put plainly: ELISA. Particulars: one partner purified.
For assay [9], the target named is hemagglutinin of A/Brisbane/10/2007 (H3N2), in the influenza virus antigen standard (Influenza A virus A/Brisbane/10/2007 …, UniProt A8W8K8, strain). Put plainly: ELISA. The settings on record: one partner purified.
Assay [10] addresses recombinant H1-HA (D18-I530), A/California/06/2009 (H1N1)pdm09 (Influenza A virus A/California/06/2009 …, UniProt C3W5S1, strain). Nature of the assay: SPR. Particulars: both partners purified.
In assay [11] the target is recombinant H5-HA, A/Vietnam/1203/2004 (H5N1) (Influenza A virus A/Vietnam/1203/2004 …, UniProt Q5EP31, strain). Put plainly: SPR. The settings on record: both partners purified.
Assay [12] addresses T4, recombinant H2-HA, A/Japan/305/57 (H2N2) (Influenza A virus A/Japan/305/1957 …, UniProt P03451, strain).
T4 construct: source: bought: E-Enzymes (Protein Sciences in the SPR methods)
Put plainly: SPR. The settings on record: both partners purified.

The target in assay [13] is hemagglutinin of A/California/07/2009 (H1N1)pdm09, in the influenza virus antigen standard (Influenza A virus A/California/07/2009 …, UniProt C3W5X2, strain). Nature of the assay: ELISA. Particulars: one partner purified.
Assay [14] concerns the target phage displayed HA gene fragment P66-I282 (Influenza A virus A/California/07/2009 …, UniProt C3W5X2). Put plainly: ELISA. The settings on record: both partners purified.
Assay [15] deals with phage displayed HA gene fragment L193-K225 (Influenza A virus A/California/07/2009 …, UniProt C3W5X2). Put plainly: ELISA. Particulars: both partners purified.
Assay [16] concerns the target phage displayed HA gene fragment D363-G478 (Influenza A virus A/California/07/2009 …, UniProt C3W5X2). Nature of the assay: ELISA. The settings on record: both partners purified.
The target of assay [17] is T5, recombinant H3-HA, A/Brisbane/10/2007 (H3N2) (Influenza A virus A/Brisbane/10/2007 …, UniProt A8W8K8, strain).
T5 construct: source: bought: Protein Sciences
Nature of the assay: SPR; data not shown: sdAbs on immobilised recombinant H3-HA and H7-HA. The settings on record: both partners purified.

The target of assay [18] is T6, recombinant H7-HA, A/Netherlands/219/2003 (H7N7) (Influenza A virus …, UniProt Q6VMK1).
T6 construct: source: bought: Protein Sciences
Described as above. Particulars: both partners purified.

B1: R1a-A5 monovalent (VHH)
VHH: QVQLVESGGGLVQPGGSLRLSCSASGSAVLFSTYPMSWYRQAPGKQRELVAAVTTDGSTSYADYAKGRFTISRDNAKNTVYLQMNSLKPEDTAVYYCNARDGFFNRYDYWGQGTQVTVSS
notes: source: E. coli WK6, periplasmic extract, purified (Talon IMAC, Superdex 75 SEC)
For orientation: Kd means the constant that tells how readily two partners part at equilibrium. B1: the binding result in [1], in assay [3] and in assay [4] was “no binding” each time. Also, the Kd in [2] stood at 1.56 nM.

B2: R1a-B6 monovalent (VHH)
VHH: QVQLVESGGGLVQPGGSLRLSCAASGSFFSRYRMGWYRQAPGEQRELVASIAYDGSTSYADPVKGRFTISRDNANTVHLQMYSLKPDDTAVYYCNLDPPGILYWGQGTQVTVSS
notes: as for B1
As to B2, in assay [1], the binding result was “no binding”. For the same molecule, the results for the Kd in [2] and in assay [3] were 0.36 nM and 4.19 nM, respectively.

B3: R2b-E8 (VHH)
VHH: QVQLVESGGGLVQPGGSLRLSCAASGSFFSRYRMGWYRQAPGEQRELVAGITYDDSTNYAGSVKGRFTISRDNAKNTVHLQMNSLKPEDTAVYYCNLNPPGNLYWGQGTQVTVSS
notes: source: E. coli WK6 periplasm, purified (Talon IMAC, Superdex 75 SEC)
One may read the koff as the rate constant with which the complex falls apart. Broadly, the kon is the second-order rate constant of association. Turning to B3, the binding result is on record as “binds” in [5]; “binds” in assay [6]; “binds” in assay [7]; “binds” in assay [8]; “no binding” in assay [9]; “no binding” in assay [12]. Further, the binding result in assay [13] is recorded as “binds”; in assay [14], “no binding”; in [15], “no binding”; in assay [16], “no binding”; in [17], “no binding”; in [18], “no binding”. The values for the equilibrium dissociation constant (Kd) in assay [10] and in assay [11] were 1.74 nM and 0.48 nM, respectively. The koff was 0.000628 s⁻¹ in assay [10] and 0.000143 s⁻¹ in assay [11]. The kon was determined as 361000 M⁻¹ s⁻¹ in assay [10] and 299000 M⁻¹ s⁻¹ in assay [11].
